The source of these data is patent US20100043097A1 (CARNEGIE INSTITUTION OF WASHINGTON, published 2010).

The chains are these.
B1: BRI1-GFP (receptor, Arabidopsis thaliana, UniProt O22476 24-1196, looked up)
chain: FQASPSQSLYREIHQLISFKDVLPDKNLLPDWSSNKNPCTFDGVTCRDDKVTSIDLSSKPLNVGFSAVSSSLLSLTGLESLFLSNSHINGSVSGFKCSASLTSLDLSRNSLSGPVTTLTSLGSCSGLKFLNVSSNTLDFPGKVSGGLKLNSLEVLDLSANSISGANVVGWVLSDGCGELKHLAISGNKISGDVDVSRCVNLEFLDVSSNNFSTGIPFLGDCSALQHLDISGNKLSGDFSRAISTCTELKLLNISSNQFVGPIPPLPLKSLQYLSLAENKFTGEIPDFLSGACDTLTGLDLSGNHFYGAVPPFFGSCSLLESLALSSNNFSGELPMDTLLKMRGLKVLDLSFNEFSGELPESLTNLSASLLTLDLSSNNFSGPILPNLCQNPKNTLQELYLQNNGFTGKIPPTLSNCSELVSLHLSFNYLSGTIPSSLGSLSKLRDLKLWLNMLEGEIPQELMYVKTLETLILDFNDLTGEIPSGLSNCTNLNWISLSNNRLTGEIPKWIGRLENLAILKLSNNSFSGNIPAELGDCRSLIWLDLNTNLFNGTIPAAMFKQSGKIAANFIAGKRYVYIKNDGMKKECHGAGNLLEFQGIRSEQLNRLSTRNPCNITSRVYGGHTSPTFDNNGSMMFLDMSYNMLSGYIPKEIGSMPYLFILNLGHNDISGSIPDEVGDLRGLNILDLSSNKLDGRIPQAMSALTMLTEIDLSNNNLSGPIPEMGQFETFPPAKFLNNPGLCGYPLPRCDPSNADGYAHHQRSHGRRPASLAGSVAMGLLFSFVCIFGLILVGREMRKRRRKKEAELEMYAEGHGNSGDRTANNTNWKLTGVKEALSINLAAFEKPLRKLTFADLLQATNGFHNDSLIGSGGFGDVYKAILKDGSAVAIKKLIHVSGQGDREFMAEMETIGKIKHRNLVPLLGYCKVGDERLLVYEFMKYGSLEDVLHDPKKAGVKLNWSTRRKIAIGSARGLAFLHHNCSPHIIHRDMKSSNVLLDENLEARVSDFGMARLMSAMDTHLSVSTLAGTPGYVPPEYYQSFRCSTKGDVYSYGVVLLELLTGKRPTDSPDFGDNNLVGWVKQHAKLRISDVFDPELMKEDPALEIELLQHLKVAVACLDDRAWRRPTMVQVMAMFKEIQAGSGIDSQSTIRSIEDGGFSTIEMVDMSIKEVPEGKL
notes: Expressed in transgenic Arabidopsis; solubilised microsomal proteins used for co-immunoprecipitation; also called BRI1-GFP protein expressed from the BRI1 promoter; not shown: GFP tag

One experiment deals with T1, Protein A bead alone (UniProt P38507 37-477).
T1 construct: IP control without antibody; also called Protein A Sepharose beads
In words: immunoprecipitation control from microsomal proteins, anti-GFP immunoblot. On the procedure:
Microsomal proteins (Input, lane 1) from det2 mutant plants expressing BRI1-GFP under the control of BRI1 promoter were immunoprecipitated (IP) using polyclonal anti-BRK1 antibodies affinity-purified using an BRK1 antigen column (lane 3). Protein A bead alone was used as IP control (lane 2). Immunoblots were probed using anti-GFP antibodies. BRI1-GFP can be pulled down by anti-BRI1 antibody but not by protein A bead.
All procedures were performed at 4° C. Rosette leaves of 3-week-old Arabidopsis plants were homogenized with mortar and pestle in the grinding buffer (20 mM HEPES, pH 7.5, 40 mM KCl, 250 mM sucrose, 5 mM MgCl₂ and protein inhibitors) at a ratio of 3 mL buffer per gram of tissue. Homogenate was filtered through 2 layers of Miracloth (CalBiochem, La Jolla, Calif.), and centrifuged at 10,000 g for 10 minutes. The supernatant was further centrifuged at 100,000 g for 60 min to pellet the microsomal fraction. Microsomes were re-suspended in 0.5 mL grinding buffer and sonicated for 10 sec. Triton X-100 was added to a final concentration of 1%. After mixing, the extracts were centrifuged at 20,000 g for 10 min. Supernatant was diluted 5 times with grinding buffer to reduce Triton X-100 to 0.2%. […] Samples were analyzed by SDS-PAGE and immunoblotting.
Background: In western blotting, separated proteins are transferred to a membrane and probed.

For the experiment “BRI1-GFP”, the target named is B1. Briefly: co-immunoprecipitation with anti-GFP antibodies after 100 nM brassinolide for 30 min, anti-myc immunoblot (FIG. 2D).

B1: in the experiment with Protein A bead alone, the binding result is listed as “no binding”.

B2: BRK1-myc (enzyme)
chain: GCCQSLFSGDNPLGKDGVQPQPLSQNNHGGATTADNGGSGGASGVGGGGGGGGIPSFSEFSFADLKAATNNFSSDNIVSESGEKAPNLVYKGRLQNRRWIAVKKFTKMAWPEPKQFAEEAWGVGKLRHNRLANLIGYCCDGDERLLVAEFMPNDTLAKHLFHWENQTIEWAMRLRVGYYIAEALDYCSTEGRPLYHDLNAYRVLFDEDGDPRLSCFGLMKNSRDGKSYSTNLAYTPPEYLRNGRVTPESVTYSFGTVLLDLLSGKHIPPSHALDMIRGKNIILLMDSHLEGKFSTEEATVVVELASQCLQYEPRERPNTKDLVATLAPLQTKSDVPSYVMLGIKKQEEAPSTPQRPLSPLGEACSRMDLTAIHQILVMTHYRDDEGTNELSFQEWTQQMKDMLDARKRGDQSFREKDFKTAIDCYSQFIDVGTMVSPTVFGRRSLCYLLCDQPDAALRDAMQAQCVYPDWPTAFYMQSVALAKLNMNTDAADMLNEAAQLEEKRQRGGRGS
notes: Full-length BRK1 with C-terminal 4x Myc tag, expressed from the 35S promoter in Arabidopsis; also called BRK1-myc protein; not shown: 4x Myc tag of the pGWB17 vector
With B2, in the experiment with BRI1-GFP, the “amount of co-immunoprecipitated BRK1-myc after BR treatment relative to the untreated sample” value was 46 % of the untreated sample.
